Consider one molecule from US20230270824A1, “INTERFERON-BASED CANCER TREATMENT METHOD AND PHARMACEUTICAL COMPOSITION” (XIAMEN AMOYTOP BIOTECH CO., LTD., priority 2019, published 2023).

Where “and” joins values, the source holds several entries; their conditions need not be identical. Equal entries are not always repeated.

In experiment [1] the test system is transplanted lung cancer LLC. As to the kind of experiment: Interferon combined with gemcitabine, transplanted lung cancer LLC in mice (Example 6). It is filed as in vivo, C57BL/6N mice. The method, then: In this example, a comparative study on the efficacy of PEG-mIFN-α4 intermittent administration (once every 48 hours for four consecutive times, then drug withdrawal for 192 hours; for 5 rounds), PEG-mIFN-α4 continuous administration (once every 48 hours for 32 consecutive times), PEG-mIFN-α4 in combination with gemcitabine (PEG-mIFN-α4: once every 48 hours for four consecutive times, then drug withdrawal for 360 hours, 4 rounds; gemcitabine: once a week) on transplanted […] LLC in mice was performed.
On the day when the tumor was inoculated, they were randomly divided into PEG-mIFN-α4 continuous administration group (N=26, female 13, male 13), PEG-mIFN-α4 intermittent administration group (N=26, female 13, male 13), the normal saline control group (N=26, female 13, male 13), the gemcitabine only group (N=26, female 13, male 13), and PEG-mIFN-α4 combined with gemcitabine group (N=26, female 13, male 13).
For the PEG-mIFN-α4 intermittent administration group, PEG-mIFN-α4 was administered once every 48 hours for 4 consecutive times, then drug withdrawal for 192 hours; for […]. For the PEG-mIFN-α4 continuous administration group, PEG-mIFN-α4 was administered once every 48 hours. For the PEG-mIFN-α4 combined with gemcitabine group, PEG-mIFN-α4 was administered once every 48 hours for 4 consecutive times, then drug withdrawal for 360 hours; for 4 rounds; and gemcitabine was administered once a week. For the gemcitabine only group, gemcitabine was administered once a week. For the saline control group, equal volume of saline was administered. Gemcitabine was injected intraperitoneally, 60 mg/kg.
(§1) SAS9.4 software was used for comparing the difference in mortality, and the statistical tests were all two-sided tests.

The subject of experiment [2] is transplanted melanoma B16. Put plainly: Interferon combined with gemcitabine, transplanted melanoma B16 in mice (Example 8). The class given is in vivo, C57BL/6N mice. The method, then: In this example, a comparative study on the efficacy of PEG-mIFN-α4 intermittent administration (once every 48 hours for 3 consecutive times, then drug withdrawal for 240 hours; for 4 rounds), PEG-mIFN-α4 continuous administration (once every 48 hours for 24 consecutive times), PEG-mIFN-α4 in combination with gemcitabine (PEG-mIFN-α4: once every 48 hours for 3 consecutive times, then drug withdrawal for 240 hours, 4 rounds; gemcitabine: once a week) on transplanted melanoma B16 in mice was performed.
On the day when the tumor was inoculated, they were randomly divided into PEG-mIFN-α4 continuous administration group (N=28, female 14, male 14), PEG-mIFN-α4 intermittent administration group (N=28, female 14, male 14), the normal saline control group (N=28, female 14, male 14), the gemcitabine only group (N=28, female 14, male 14), and PEG-mIFN-α4 combined with gemcitabine group (N=28, female 14, male 14).
For the PEG-mIFN-α4 intermittent administration group, PEG-mIFN-α4 was administered once every 48 hours for 3 consecutive times, then drug withdrawal for 240 hours; for 4 rounds. For the PEG-mIFN-α4 continuous administration group, PEG-mIFN-α4 was administered once every 48 hours. For the PEG-mIFN-α4 combined with gemcitabine group, PEG-mIFN-α4 was administered once every 48 hours for 3 consecutive times, then drug withdrawal for 240 hours; for 4 rounds; and gemcitabine was administered once a week. For the gemcitabine only group, gemcitabine was administered once a week. For the saline control group, equal volume of saline was administered. Gemcitabine was injected intraperitoneally, 60 mg/kg.
as §1

For experiment [3], the system named is transplanted liver cancer H22. As to the kind of experiment: Continuous vs intermittent administration, transplanted liver cancer H22 in mice (Example 4). It is filed as in vivo, BALB/c mice. The settings on record: continuous administration: 1 μg s.c. once every 48 hours, 21 times, Day 40 after tumor inoculation.
For experiment [4], the system named is transplanted liver cancer H22. Put plainly: Interferon combined with gemcitabine, transplanted liver cancer H22 in mice (Example 5). It is filed as in vivo, BALB/c mice. As to conditions: 108 days observation. The method, then:
In this example, a comparative study on the efficacy of PEG-mIFN-α4 intermittent administration (once every 48 hours for three consecutive times, then drug withdrawal for 144 hours; for 8 rounds), PEG-mIFN-α4 continuous administration (once every 48 hours for 42 consecutive times), PEG-mIFN-α4 in combination with gemcitabine (PEG-mIFN-α4: once every 48 hours for three consecutive times, then drug withdrawal for 240 hours, 6 rounds; gemcitabine: once a week) on H22 transplanted liver cancer in mice was performed.
On the day when the tumor was inoculated, they were randomly divided into PEG-mIFN-α4 continuous administration group (N=24, female 12, male 12), PEG-mIFN-α4 intermittent administration group (N=24, female 12, male 12), the normal saline control group (N=24, female 12, male 12), the gemcitabine only group (N=24, female 12, male 12), and PEG-mIFN-α4 combined with gemcitabine group (N=24, female 12, male 12).
Gemcitabine was injected intraperitoneally, 60 mg/kg.
For the PEG-mIFN-α4 intermittent administration group, PEG-mIFN-α4 was administered once every 48 hours for three consecutive times, then drug withdrawal for 144 hours; for 8 rounds. For the PEG-mIFN-α4 continuous administration group, PEG-mIFN-α4 was administered once every 48 hours. For the PEG-mIFN-α4 combined with gemcitabine group, PEG-mIFN-α4 was administered once every 48 hours for three consecutive times, then drug withdrawal for 240 hours; for 6 rounds; and gemcitabine was administered once a week. For the gemcitabine only group, gemcitabine was administered once a week. For the saline control group, equal volume of saline was administered.
Survival analysis was performed for all groups to compare the differences between groups.

B1: PEG-mIFN-α4: deglycosylated recombinant mouse interferon α4 modified with 40 kD Y-type polyethylene glycol (YPEG-NHS); SEQ ID NO: 6 (protein)
chain: CDLPHTYNLGNKRALTVLEEMRRLPPLSCLKDRKDFGFPLEKVDNQQIQKAQAILVLRDLTQQILNLFTSKDLSATWNATLLDSFCNDLHQQLNDLKACVMQEPPLTQEDSLLAVRTYFHRITVYLRKKKHSLCAWEVIRAEVWRALSSSTNLLARLSEEKE
modifications: 40 kD Y-type PEG; deglycosylated; amino acid sequence of peginterferon murine 4
B1: the Mortality in experiment [1] (continuous administration (1 μg/mouse s.c. once every 48 hours), 45 days after tumor inoculation) turned out to be 100%; in experiment [1] (continuous administration (once every 48 hours), Day 64 post tumor inoculation), 100%; in experiment [1] (intermittent administration (every 48 h x4, withdrawal 192 h), 45 days after tumor inoculation) it was 34.6%; in experiment [1] (intermittent administration (every 48 h x4, withdrawal 192 h), Day 64 post tumor inoculation), 84.6%; in experiment [2] (continuous administration (once every 48 hours), 46 days after tumor inoculation) it was 100%; in experiment [2] (continuous administration (once every 48 hours, 24 times), Table 7, day not printed for this cell (footnotes: Day 46 / Day 48)), 100%. The Mortality in experiment [2] (intermittent administration (every 48 h x3, withdrawal 240 h, 4 rounds), 46 days after tumor inoculation) came out at 39.3%; in experiment [2] (intermittent administration (every 48 h x3, withdrawal 240 h, 4 rounds), 48 days after tumor inoculation), 46.4%. In addition, the “Median survival period (Time after tumor inoculation, days)” value in experiment [3] was 38 days and 38.0 days. The “Mean survival period (days post tumor inoculation)” value in experiment [4] (continuous administration: 1 μg/mouse s.c. once every 48 hours, 42 times) is 37.0 days; in experiment [4] (intermittent administration: 1 μg/mouse s.c. every 48 h x3, withdrawal 144 h, 8 rounds), 64.0 days.
